Measured values from patent publication US20220160939A1, “SELF-ASSEMBLING PEPTIDES AS BRONCHIAL OBSTRUCTION AGENTS” (3-D MATRIX, LTD., priority 2014, published 2022).

Experiments:
Type in all cases: physicochemical
[1] = Gelation kinetics of pH adjusted peptides, time sweep test with DMEM
Experimental: The effect of pH level on the properties of gelation kinetics was evaluated to identify optimized pH levels for the peptides as described herein. Fast gelation kinetics of PuraMatrix® and other peptides within body fluid may generally improve its function and response time for various clinical applications. The pH level may impart response time to begin gelation when treated with simulated body fluid including but not limited to DMEM. […] A fast response time of PuraMatrix® (SEQ ID NO:1) and other peptides within body fluid may generally improve its function and response time for various clinical applications.
(§1) Time sweep tests were performed at 1 rad/sec and at 1 Pa with 20 mm plates and 500 μm gap distance. During time sweep test of PuraMatrix® (SEQ ID NO:1) 2.5% solution, DMEM was added into the chamber surrounding the measuring plates to soak PuraMatrix® (SEQ ID NO:1) solution at 0 time point. The results are shown in FIG. 9A for PuraMatrix® (SEQ ID NO:1) 2.5% solution.
as §1, with “IEIK13” for “PuraMatrix®”, “NO:2) 1.5%” for “NO:1) 2.5%”, “NO:2) 1.5%” for “NO:1)”, “point and continuously data was recorded.” for “point.”, “9B” for “9A”

[2] = Rheological properties of ionic strength adjusted hydrogels after DMEM treatment for 10 min; details: 1% hydrogels
Experimental: Based on the results of the effect on the rheological properties of the peptide solutions after adjusting their ionic strength levels, the effect on the rheological properties of the peptide hydrogels after DMEM treatment for 10 min was evaluated. […] The results are shown in FIG. 15 for PuraMatrix® (SEQ ID NO:1) 1% hydrogels and in FIG. 16 for IEIK13 (SEQ ID NO:2) 1% hydrogels, both after DMEM treatment for 10 min. Frequency sweep tests were performed from 1 rad/sec to 10 rad/sec at 1 Pa and the storage modulus at 1 rad/sec was selected for data.
Based on the results of the effect on the rheological properties of the peptide solutions and hydrogels after adjusting their ionic strength levels with NaCl, the effect of various salts (KCl, MgCl2, and CaCl2) was also evaluated. The rheological property of PuraMatrix® (SEQ ID NO:1) solutions increases with ionic strength adjustment at 0.15 M of all the salts. Increases of the rheological property of PuraMatrix® (SEQ ID NO:1) solutions with various salts were not predominantly different. However, increases of the rheological property of PuraMatrix® (SEQ ID NO:1) solutions may vary depending on the salting out constant, K of each salt. Constant K is a constant in Cohen's equation: log S=B−KI, where S is solubility, B is idealized solubility, K is salting out constant, and I is ionic strength. With a higher value of constant K and ionic strength of salts, solubility of the peptide may decrease resulting in strong peptide self-assembly with increased hydrophobic effect and higher rheological properties of the peptide solution. The constant K of NaCl may be higher than the other salts. […] The results are shown in FIG. 17 for PuraMatrix® (SEQ ID NO:1) 1% solution before DMEM treatment, and in FIG. 18 for PuraMatrix® (SEQ ID NO:1) 1% hydrogels after DMEM treatment for 10 min Frequency sweep tests were performed from 1 rad/sec to 10 rad/sec at 1 Pa and the storage modulus at 1 rad/sec was selected for data.

[3] = Mechanical properties of IEIK13 with and without Indigo Carmine; details: 1.5% IEIK13; 0.00585% Indigo Carmine; 24 hours post reconstitution
Experimental: Indigo carmine powder was used to prepare a 1% solution in deionized (DI) water. Using IEIK13 (SEQ ID NO:2) powder, a 2 percent solution was prepared using DI water. The amount of IEIK13 (SEQ ID NO:2) was weighed out and the appropriate amount of DI water was added gently down the side of the container. Mixing was accomplished by vortexing for about 30 seconds, and then sonicating for 30 seconds. The solution was then centrifuged for about 10 to about 15 minutes at […]. The solution may undergo further vortexing and centrifuging until the solution is clear and without bubbles.
To obtain a final concentration of 0.00585% indigo carmine, the necessary amount of 1% IC is added to the appropriate amount of DI water to dilute 2% IEIK (SEQ ID NO:2) to 1.5% IEIK (SEQ ID NO:2). The solution is then vortexted for about 30 seconds and centrifuged for about 10 to about 15 minutes at 3000 rpm. The solution may undergo further vortexing and centrifuging until the solution is clear and without bubbles.
The solution was allowed to sit overnight at room temperature prior to use. The cap may be left off of the container during preparation to allow more efficient removal of bubbles.
Visualization of hydrogel spreading throughout the lumen of the lungs was necessary for determination of feasibility. Indigo Carmine was chosen as a common contrast reagent. […]

[4] = with pH adjustment, PuraMatrix 2.5%, IEIK13 1.5% solution

Substance	gelation response to DMEM [1, 4]	ionic strength above which the rheological property of hydrogels after DMEM treatment decreases ([2]; DMEM treatment for 10 min)	ionic strength up to which the rheological property of hydrogels after DMEM treatment increased ([2]; DMEM treatment for 10 min)	gelation response to DMEM ([1]; without pH adjustment, 1.5% solution)	rheological property of hydrogels after DMEM treatment ([2]; ionic strength adjustment up to 0.025 M, DMEM 10 min)	mechanical properties with versus without Indigo Carmine [3]
Arg-Ala-Asp-Ala-Arg-Ala-Asp-Ala-Arg-Ala-Asp-Ala-Arg-Ala-Asp-Ala [PuraMatrix ®]	immediate storage modulus increase	above 0.7 M	up to 0.7 M			
Ile-Glu-Ile-Lys-Ile-Glu-Ile-Lys-Ile-Glu-Ile-Lys-Ile [IEIK13]	immediate storage modulus increase	above 0.03 M		immediate storage modulus increase	did not significantly change	no significant difference
